Measured values taken from paper PMC8680157 (Nature, 2021).

Target: histone H4 (in the NCP), unmodified at K20 (human, UniProt P62805 1-103)
Experiment: cryo-EM structure

B1: BARD1 (ARD–BRCT), residues 415–777, as tethered to the NCP in BARD1^AB–NCPub (domain or fragment)
chain: KLLPNMAVKRNHRGETLLHIASIKGDIPSVEYLLQNGSDPNVKDHAGWTPLHEACNHGHLKVVELLLQHKALVNTTGYQNDSPLHDAAKNGHVDIVKLLLSYGASRNAVNIFGLRPVDYTDDESMKSLLLLPEKNESSSASHCSVMNTGQRRDGPLVLIGSGLSSEQQKMLSELAVILKAKKYTEFDSTVTHVVVPGDAVQSTLKCMLGILNGCWILKFEWVKACLRRKVCEQEEKYEIPEGPRRSRLNREQLLPKLFDGCYFYLWGTFKHHPKDNLIKLVTAGGGQILSRKPKPDSDVTQTINTVAYHARPDSDQRFCTQYIIYEDLCNYHPERVRQGKVWKAPSSWFIDCVMSFELLPLDS
binding result: binds
